The results in this text go back to the supplement of paper PMC12338614.

The chains are these.
B1: library; numbered along this chain (parent)
chain: MEVVDPQQLGMFTEGELMSVGMDTFIHRIDSTEVIYQPRRKRAKLIGKYLMGDLLGEGSYGKVKEVLDSETLCRRAVKILKKKKLRRIPNGEANVKKEIQLLRRLRHKNVIQLVDVLYNEEKQKMYMVMEYCVCGMQEMLDSVPEKRFPVCQAHGYFCQLIDGLEYLHSQGIVHKDIKPGNLLLTTGGTLKISDLGVAEALHPFAADDTCRTSQGSPAFQPPEIANGLDTFSGFKVDIWSAGVTLYNITTGLYPFEGDNIYKLFENIGKGSYAIPGDCGPPLSDLLKGMLEYEPAKRFSIRQIRQHSWFRKKHPPAEAPVPIPPSPDTKDRWRSMTVVPYLEDLHGADEDEDLFDIEDDIIYTQDFTVPGQVPEEEASHNGQRRGLPKAVCMNGTEAAQLSTKSRAEGRAPNPARKACSASSKIRRLSACKQQ

± gives the uncertainty stated by the source.

This data set covers variants of B1. Description: STK11 functional score (HeLa growth suppression), rescaled enrichment; synonymous median = 1, nonsense median = 0 (normalised score). Conditions: with HeLa; variant type: missense. In outline:
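In HeLa, Bxb1 integrated POPCode codon-randomised libraries of codon-optimised STK11 at an AAVS1 landing pad; three regions were each transfected three times. Integrants, marked as BFP-negative and mCherry-positive, were FACS-sorted 4–5 days after electroporation and expanded for about two weeks before tiled gDNA amplicons were sequenced on NextSeq (~2 million reads per tile). Each functional score is a post/pre-selection log ratio corrected to wild type, rescaled to the synonymous and nonsense medians, and merged across codons and replicate transfections, with error estimated by bootstrapping.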
MEVVDPQQLGMFTEGELMSVGMDTFIHRIDSTEVIYQPRRKRAKLIGKYLMGDLLGEGSYGKVKEVLDSETLCRRAVKILKKKKLRRIPNGEANVKKEIQLLRRLRHKNVIQLVDVLYNEEKQKMYMVMEYCVCGMQEMLDSVPEKRFPVAQAHGYFCQLIDGLEYLHSQGIVHKDIKPGNLLLTTGGTLKISDLGVAEALHPFAADDTCRTSQGSPAFQPPEIANGLDTFSGFKVDIWSAGVTLYNITTGLYPFEGDNIYKLFENIGKGSYAIPGDCGPPLSDLLKGMLEYEPAKRFSIRQIRQHSWFRKKHPPAEAPVPIPPSPDTKDRWRSMTVVPYLEDLHGADEDEDLFDIEDDIIYTQDFTVPGQVPEEEASHNGQRRGLPKAVCMNGTEAAQLSTKSRAEGRAPNPARKACSASSKIRRLSACKQQ [C151A]: the STK11 functional score was 1.4 ± 0.25.

On to MEVVDPQQLGMFTEGELMSVGMDTFIHRIDSTEVIYQPRRKRAKLIGKYLMGDLLGEGSYGKVKEVLDSETLCRRAVKILKKKKLRRIPNGEANVKKEIQLLRRLRHKNVIQLVDVLYNEEKQKMYMVMEYCVCGMQEMLDSVPEKRFPVEQAHGYFCQLIDGLEYLHSQGIVHKDIKPGNLLLTTGGTLKISDLGVAEALHPFAADDTCRTSQGSPAFQPPEIANGLDTFSGFKVDIWSAGVTLYNITTGLYPFEGDNIYKLFENIGKGSYAIPGDCGPPLSDLLKGMLEYEPAKRFSIRQIRQHSWFRKKHPPAEAPVPIPPSPDTKDRWRSMTVVPYLEDLHGADEDEDLFDIEDDIIYTQDFTVPGQVPEEEASHNGQRRGLPKAVCMNGTEAAQLSTKSRAEGRAPNPARKACSASSKIRRLSACKQQ [C151E], for which the STK11 functional score turned out to be 0.756 ± 0.29.

In the case of MEVVDPQQLGMFTEGELMSVGMDTFIHRIDSTEVIYQPRRKRAKLIGKYLMGDLLGEGSYGKVKEVLDSETLCRRAVKILKKKKLRRIPNGEANVKKEIQLLRRLRHKNVIQLVDVLYNEEKQKMYMVMEYCVCGMQEMLDSVPEKRFPACQAHGYFCQLIDGLEYLHSQGIVHKDIKPGNLLLTTGGTLKISDLGVAEALHPFAADDTCRTSQGSPAFQPPEIANGLDTFSGFKVDIWSAGVTLYNITTGLYPFEGDNIYKLFENIGKGSYAIPGDCGPPLSDLLKGMLEYEPAKRFSIRQIRQHSWFRKKHPPAEAPVPIPPSPDTKDRWRSMTVVPYLEDLHGADEDEDLFDIEDDIIYTQDFTVPGQVPEEEASHNGQRRGLPKAVCMNGTEAAQLSTKSRAEGRAPNPARKACSASSKIRRLSACKQQ [V150A], the STK11 functional score was found to be 0.104 ± 0.15.

For MEVVDPQQLGMFTEGELMSVGMDTFIHRIDSTEVIYQPRRKRAKLIGKYLMGDLLGEGSYGKVKEVLDSETLCRRAVKILKKKKLRRIPNGEANVKKEIQLLRRLRHKNVIQLVDVLYNEEKQKMYMVMEYCVCGMQEMLDSVPEKRFPWCQAHGYFCQLIDGLEYLHSQGIVHKDIKPGNLLLTTGGTLKISDLGVAEALHPFAADDTCRTSQGSPAFQPPEIANGLDTFSGFKVDIWSAGVTLYNITTGLYPFEGDNIYKLFENIGKGSYAIPGDCGPPLSDLLKGMLEYEPAKRFSIRQIRQHSWFRKKHPPAEAPVPIPPSPDTKDRWRSMTVVPYLEDLHGADEDEDLFDIEDDIIYTQDFTVPGQVPEEEASHNGQRRGLPKAVCMNGTEAAQLSTKSRAEGRAPNPARKACSASSKIRRLSACKQQ [V150W], the STK11 functional score stood at 0.631 ± 0.074.

As to MEVVDPQQLGMFTEGELMSVGMDTFIHRIDSTEVIYQPRRKRAKLIGKYLMGDLLGEGSYGKVKEVLDSETLCRRAVKILKKKKLRRIPNGEANVKKEIQLLRRLRHKNVIQLVDVLYNEEKQKMYMVMEYCVCGMQEMLDSVPEKRFPKCQAHGYFCQLIDGLEYLHSQGIVHKDIKPGNLLLTTGGTLKISDLGVAEALHPFAADDTCRTSQGSPAFQPPEIANGLDTFSGFKVDIWSAGVTLYNITTGLYPFEGDNIYKLFENIGKGSYAIPGDCGPPLSDLLKGMLEYEPAKRFSIRQIRQHSWFRKKHPPAEAPVPIPPSPDTKDRWRSMTVVPYLEDLHGADEDEDLFDIEDDIIYTQDFTVPGQVPEEEASHNGQRRGLPKAVCMNGTEAAQLSTKSRAEGRAPNPARKACSASSKIRRLSACKQQ [V150K], the STK11 functional score stood at 1.36 ± 0.28.

For MEVVDPQQLGMFTEGELMSVGMDTFIHRIDSTEVIYQPRRKRAKLIGKYLMGDLLGEGSYGKVKEVLDSETLCRRAVKILKKKKLRRIPNGEANVKKEIQLLRRLRHKNVIQLVDVLYNEEKQKMYMVMEYCVCGMQEMLDSVPEKRFPTCQAHGYFCQLIDGLEYLHSQGIVHKDIKPGNLLLTTGGTLKISDLGVAEALHPFAADDTCRTSQGSPAFQPPEIANGLDTFSGFKVDIWSAGVTLYNITTGLYPFEGDNIYKLFENIGKGSYAIPGDCGPPLSDLLKGMLEYEPAKRFSIRQIRQHSWFRKKHPPAEAPVPIPPSPDTKDRWRSMTVVPYLEDLHGADEDEDLFDIEDDIIYTQDFTVPGQVPEEEASHNGQRRGLPKAVCMNGTEAAQLSTKSRAEGRAPNPARKACSASSKIRRLSACKQQ [V150T], the STK11 functional score was determined as 0.385 ± 0.47.

Turning to MEVVDPQQLGMFTEGELMSVGMDTFIHRIDSTEVIYQPRRKRAKLIGKYLMGDLLGEGSYGKVKEVLDSETLCRRAVKILKKKKLRRIPNGEANVKKEIQLLRRLRHKNVIQLVDVLYNEEKQKMYMVMEYCVCGMQEMLDSVPEKRFPCCQAHGYFCQLIDGLEYLHSQGIVHKDIKPGNLLLTTGGTLKISDLGVAEALHPFAADDTCRTSQGSPAFQPPEIANGLDTFSGFKVDIWSAGVTLYNITTGLYPFEGDNIYKLFENIGKGSYAIPGDCGPPLSDLLKGMLEYEPAKRFSIRQIRQHSWFRKKHPPAEAPVPIPPSPDTKDRWRSMTVVPYLEDLHGADEDEDLFDIEDDIIYTQDFTVPGQVPEEEASHNGQRRGLPKAVCMNGTEAAQLSTKSRAEGRAPNPARKACSASSKIRRLSACKQQ [V150C], the STK11 functional score was found to be 0.762 ± 0.23.

In the case of MEVVDPQQLGMFTEGELMSVGMDTFIHRIDSTEVIYQPRRKRAKLIGKYLMGDLLGEGSYGKVKEVLDSETLCRRAVKILKKKKLRRIPNGEANVKKEIQLLRRLRHKNVIQLVDVLYNEEKQKMYMVMEYCVCGMQEMLDSVPEKRFPQCQAHGYFCQLIDGLEYLHSQGIVHKDIKPGNLLLTTGGTLKISDLGVAEALHPFAADDTCRTSQGSPAFQPPEIANGLDTFSGFKVDIWSAGVTLYNITTGLYPFEGDNIYKLFENIGKGSYAIPGDCGPPLSDLLKGMLEYEPAKRFSIRQIRQHSWFRKKHPPAEAPVPIPPSPDTKDRWRSMTVVPYLEDLHGADEDEDLFDIEDDIIYTQDFTVPGQVPEEEASHNGQRRGLPKAVCMNGTEAAQLSTKSRAEGRAPNPARKACSASSKIRRLSACKQQ [V150Q], the STK11 functional score turned out to be 0.265 ± 0.12.

For MEVVDPQQLGMFTEGELMSVGMDTFIHRIDSTEVIYQPRRKRAKLIGKYLMGDLLGEGSYGKVKEVLDSETLCRRAVKILKKKKLRRIPNGEANVKKEIQLLRRLRHKNVIQLVDVLYNEEKQKMYMVMEYCVCGMQEMLDSVPEKRFPRCQAHGYFCQLIDGLEYLHSQGIVHKDIKPGNLLLTTGGTLKISDLGVAEALHPFAADDTCRTSQGSPAFQPPEIANGLDTFSGFKVDIWSAGVTLYNITTGLYPFEGDNIYKLFENIGKGSYAIPGDCGPPLSDLLKGMLEYEPAKRFSIRQIRQHSWFRKKHPPAEAPVPIPPSPDTKDRWRSMTVVPYLEDLHGADEDEDLFDIEDDIIYTQDFTVPGQVPEEEASHNGQRRGLPKAVCMNGTEAAQLSTKSRAEGRAPNPARKACSASSKIRRLSACKQQ [V150R], the STK11 functional score was found to be 1.17 ± 0.25.

MEVVDPQQLGMFTEGELMSVGMDTFIHRIDSTEVIYQPRRKRAKLIGKYLMGDLLGEGSYGKVKEVLDSETLCRRAVKILKKKKLRRIPNGEANVKKEIQLLRRLRHKNVIQLVDVLYNEEKQKMYMVMEYCVCGMQEMLDSVPEKRFPPCQAHGYFCQLIDGLEYLHSQGIVHKDIKPGNLLLTTGGTLKISDLGVAEALHPFAADDTCRTSQGSPAFQPPEIANGLDTFSGFKVDIWSAGVTLYNITTGLYPFEGDNIYKLFENIGKGSYAIPGDCGPPLSDLLKGMLEYEPAKRFSIRQIRQHSWFRKKHPPAEAPVPIPPSPDTKDRWRSMTVVPYLEDLHGADEDEDLFDIEDDIIYTQDFTVPGQVPEEEASHNGQRRGLPKAVCMNGTEAAQLSTKSRAEGRAPNPARKACSASSKIRRLSACKQQ [V150P]: the STK11 functional score is 0.992 ± 0.14.

For MEVVDPQQLGMFTEGELMSVGMDTFIHRIDSTEVIYQPRRKRAKLIGKYLMGDLLGEGSYGKVKEVLDSETLCRRAVKILKKKKLRRIPNGEANVKKEIQLLRRLRHKNVIQLVDVLYNEEKQKMYMVMEYCVCGMQEMLDSVPEKRFPGCQAHGYFCQLIDGLEYLHSQGIVHKDIKPGNLLLTTGGTLKISDLGVAEALHPFAADDTCRTSQGSPAFQPPEIANGLDTFSGFKVDIWSAGVTLYNITTGLYPFEGDNIYKLFENIGKGSYAIPGDCGPPLSDLLKGMLEYEPAKRFSIRQIRQHSWFRKKHPPAEAPVPIPPSPDTKDRWRSMTVVPYLEDLHGADEDEDLFDIEDDIIYTQDFTVPGQVPEEEASHNGQRRGLPKAVCMNGTEAAQLSTKSRAEGRAPNPARKACSASSKIRRLSACKQQ [V150G], the STK11 functional score was 0.594 ± 0.14.

On to MEVVDPQQLGMFTEGELMSVGMDTFIHRIDSTEVIYQPRRKRAKLIGKYLMGDLLGEGSYGKVKEVLDSETLCRRAVKILKKKKLRRIPNGEANVKKEIQLLRRLRHKNVIQLVDVLYNEEKQKMYMVMEYCVCGMQEMLDSVPEKRFPHCQAHGYFCQLIDGLEYLHSQGIVHKDIKPGNLLLTTGGTLKISDLGVAEALHPFAADDTCRTSQGSPAFQPPEIANGLDTFSGFKVDIWSAGVTLYNITTGLYPFEGDNIYKLFENIGKGSYAIPGDCGPPLSDLLKGMLEYEPAKRFSIRQIRQHSWFRKKHPPAEAPVPIPPSPDTKDRWRSMTVVPYLEDLHGADEDEDLFDIEDDIIYTQDFTVPGQVPEEEASHNGQRRGLPKAVCMNGTEAAQLSTKSRAEGRAPNPARKACSASSKIRRLSACKQQ [V150H], for which the STK11 functional score was 1.26 ± 0.38.

Consider MEVVDPQQLGMFTEGELMSVGMDTFIHRIDSTEVIYQPRRKRAKLIGKYLMGDLLGEGSYGKVKEVLDSETLCRRAVKILKKKKLRRIPNGEANVKKEIQLLRRLRHKNVIQLVDVLYNEEKQKMYMVMEYCVCGMQEMLDSVPEKRFPLCQAHGYFCQLIDGLEYLHSQGIVHKDIKPGNLLLTTGGTLKISDLGVAEALHPFAADDTCRTSQGSPAFQPPEIANGLDTFSGFKVDIWSAGVTLYNITTGLYPFEGDNIYKLFENIGKGSYAIPGDCGPPLSDLLKGMLEYEPAKRFSIRQIRQHSWFRKKHPPAEAPVPIPPSPDTKDRWRSMTVVPYLEDLHGADEDEDLFDIEDDIIYTQDFTVPGQVPEEEASHNGQRRGLPKAVCMNGTEAAQLSTKSRAEGRAPNPARKACSASSKIRRLSACKQQ [V150L], for which the STK11 functional score worked out at 0.401 ± 0.14.

With MEVVDPQQLGMFTEGELMSVGMDTFIHRIDSTEVIYQPRRKRAKLIGKYLMGDLLGEGSYGKVKEVLDSETLCRRAVKILKKKKLRRIPNGEANVKKEIQLLRRLRHKNVIQLVDVLYNEEKQKMYMVMEYCVCGMQEMLDSVPEKRFPSCQAHGYFCQLIDGLEYLHSQGIVHKDIKPGNLLLTTGGTLKISDLGVAEALHPFAADDTCRTSQGSPAFQPPEIANGLDTFSGFKVDIWSAGVTLYNITTGLYPFEGDNIYKLFENIGKGSYAIPGDCGPPLSDLLKGMLEYEPAKRFSIRQIRQHSWFRKKHPPAEAPVPIPPSPDTKDRWRSMTVVPYLEDLHGADEDEDLFDIEDDIIYTQDFTVPGQVPEEEASHNGQRRGLPKAVCMNGTEAAQLSTKSRAEGRAPNPARKACSASSKIRRLSACKQQ [V150S], the STK11 functional score was determined as 0.347 ± 0.13.
